Test results published in PMC8782923, “A Klotho-derived peptide protects against kidney fibrosis by targeting TGF-β signaling” (Nature Communications, 2022).

Molecular target: Recombinant TGF-β receptor 2 protein (UniProt P37173)
Assay: SPR; Biacore T200, 25 °C; TβR2 amine-coupled on a CM5 chip (50 µg/ml in 10 mM acetate pH 4.0); peptides in PBS injected at 60 µl/min, 180 s association, 540 s dissociation; 1:1 binding model

Chain of Recombinant TGF-β receptor 2 protein (P37173 23-166): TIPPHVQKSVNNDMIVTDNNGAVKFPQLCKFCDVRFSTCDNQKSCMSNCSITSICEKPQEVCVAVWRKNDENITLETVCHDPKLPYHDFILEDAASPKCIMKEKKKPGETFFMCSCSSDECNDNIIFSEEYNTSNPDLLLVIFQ

- koff: 0.00233 s⁻¹
Substance: KP12 (peptide)
